Assay results published in article PMC5025174 (PLoS ONE, 2016).
Residue numbers refer to the chain shown, from its start. Numbers in names are those of the source.

B1: ICAM11-4 VHH, wild-type (VHH)
VHH: QVQLVESGGGLVQPGGSLRLSCAASGSISSLYVMGWYRQAPGKQRELVADITSSGSIYYVDSLKGRFTISRDNARSTVYLQMNSLEPEDTAVYYCMAHVRQDSGSEYLTYWGQGTQVTVSS
notes: anti-human ICAM-1; bears Ile57 (Kabat); source: E. coli TG1, periplasm (osmotic shock), purified (IMAC)
B2: ICAM11-4 VHH I57T (SpA-engineered) (VHH)
VHH: B1 VHH with I57T
notes: as the VHH of m6 with the stated change; numbers count on: Kabat numbering; also called ICAM11-4 I57T; SpA-engineered ICAM11-4; source: E. coli TG1, periplasm (osmotic shock), purified (IMAC); periplasmic extract for protein A chromatography
B3: ICAM34-1 VHH, wild-type (VHH)
VHH: QVKLEESGGGLVQPGGSLRLSCAASGSIFSINDMGWYRQAPGKQRELVARITRDGSAAYEDSVKGRFTISRDNAPNTVFLQMNGLKPEDTAVYYCNAEIITTQTLGRMLGEYWGQGTQVTVSS
notes: anti-human ICAM-1; bears Ala57, Pro75, Gly82b (Kabat); source: E. coli TG1, periplasm (osmotic shock), purified (IMAC)
B4: IGF1R-5 VHH, wild-type (VHH)
VHH: QVKLEESGGGLVQAGGSLRLSCAASGRTIDNYAMAWSRQAPGKDREFVATIDWGDGGARYANSVKGRFTISRDNAKGTMYLQMNNLEPEDTAVYSCAMARQSRVNLDVARYDYWGQGTQVTVSS
notes: anti-human IGF1R; bears Ala57, Asn82b (Kabat); source: E. coli TG1, periplasm (osmotic shock), purified (IMAC)
B5: IGF1R-5 VHH, humanized (VHH)
VHH: QVQLVESGGGLVQPGGSLRLSCAASGRTIDNYAMAWSRQAPGKGLEFVATIDWGDGGTRYANSVKGRFTISRDNSKNTMYLQMNSLRAEDTAVYYCAMARQSRVNLDVARYDYWGQGTLVTVSS
notes: as the VHH of m23 with FRs reverted to human IGHV3 germline; also called humanized IGF1R-5; source: E. coli TG1, periplasm (osmotic shock), purified (IMAC); periplasmic extract for protein A chromatography
B6: IGF1R-4 VHH, humanized (VHH)
VHH: QVQLVESGGGLVQPGGSLRLSCAVSGGTVSPTAMGWFRQAPGKGLEFVGHITWSRGTTRYASSVKGRFTISRDNSKNTVYLQMNSLRAEDTAVYYCAASTFLRILPEESAYTYWGQGTLVTVSS
notes: as the VHH of m18 with FRs reverted to human IGHV3 germline; also called humanized IGF1R-4; source: E. coli TG1, periplasm (osmotic shock), purified (IMAC); periplasmic extract for protein A chromatography
B7: IGF1R-4 VHH, wild-type (VHH)
VHH: QVKLEESGGGLVQAGGSLRLSCEVSGGTVSPTAMGWFRQAPGKEREFVGHITWSRGTTRVASSVKDRFTISRDSAKNTVYLQMNSLKSEDTAVYYCAASTFLRILPEESAYTYWGQGTQVTVSS
notes: anti-human IGF1R; bears Val59, Asp65 (Kabat); source: E. coli TG1, periplasm (osmotic shock), purified (IMAC)

Experiments:
human ICAM-1 ectodomain = target: T1, human ICAM-1 ectodomain (Homo sapiens, UniProt P05362); test: SPR; SEC-purified VHH monomers, 0.5-200 nM, over human ICAM-1 ectodomain amine-coupled to a CM5 chip (1348 RU); 25°C, HBS-EP pH 7.4; 1:1 binding model; details: both partners purified
T1 construct: human ICAM-1, ectodomain; source: bought: R&D Systems
T1 sequence (P05362 28-480): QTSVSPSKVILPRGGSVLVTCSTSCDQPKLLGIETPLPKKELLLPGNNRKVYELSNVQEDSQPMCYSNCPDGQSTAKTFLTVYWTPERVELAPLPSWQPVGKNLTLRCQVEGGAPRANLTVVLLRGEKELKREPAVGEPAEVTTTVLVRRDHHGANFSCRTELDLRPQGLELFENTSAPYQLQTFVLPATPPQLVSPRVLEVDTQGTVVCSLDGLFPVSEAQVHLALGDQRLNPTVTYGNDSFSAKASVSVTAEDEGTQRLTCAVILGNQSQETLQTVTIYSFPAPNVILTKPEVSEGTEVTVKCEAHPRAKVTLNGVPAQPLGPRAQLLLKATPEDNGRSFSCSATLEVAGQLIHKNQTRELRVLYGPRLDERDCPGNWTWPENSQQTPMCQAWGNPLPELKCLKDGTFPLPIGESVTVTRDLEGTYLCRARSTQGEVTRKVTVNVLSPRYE

human IGF1R ectodomain = target: T2, human IGF1R ectodomain (Homo sapiens, UniProt P08069); test: SPR; SEC-purified VHH monomers, 0.1-10 nM, over human IGF1R ectodomain amine-coupled to a CM5 chip (476 RU); 25°C, HBS-EP pH 7.4; 1:1 binding model; details: both partners purified
T2 construct: human IGF1R, ectodomain; source: bought: R&D Systems
T2 sequence (P08069 741-935): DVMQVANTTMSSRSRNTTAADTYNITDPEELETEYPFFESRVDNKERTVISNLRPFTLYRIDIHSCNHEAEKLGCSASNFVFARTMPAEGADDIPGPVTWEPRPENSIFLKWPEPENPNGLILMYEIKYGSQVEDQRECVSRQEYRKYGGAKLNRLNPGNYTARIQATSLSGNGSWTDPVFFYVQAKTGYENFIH

Row | Binder | Kd (human ICAM-1 ectodomain) [pM] | Kd (human IGF1R ectodomain) [pM]
1 | B1 | 900 | –
2 | B2 | 1300 | –
3 | B3 | 32000 | –
4 | B4 | – | 800
5 | B5 | – | 900
6 | B6 | – | 400
7 | B7 | – | 300
